Test results from PMC3666314.

Target: biotinylated PECAM-1 Y663,pY686 peptide (human)
Assay: flow cytometry bead-based binding assay

binding relative to the Lyn SH2 domain: 2 fold
B1: GST fusion protein containing the SH2 domain of Csk (domain or fragment)
chain: WFHGKITREQAERLLYPPETGLFLVRESTNYPGDYTLCVSCDGKVEHYRIMYHASKLSIDEEVYFENLMQLVEHYTSDADGLCTRLIKPK
